From article PMC9109717

Substrate: Nc1ncnc2c1ncn2[C@@H]1O[C@H](CO)[C@H]2OP(=O)(O)O[C@H]21
Assay: purified protein
Assay type: biochemical, Thermobifida fusca
Conditions: pH 7.5

B1: (Thermobifida fusca YX) (protein)
chain: MPEHDSTDDKHGIPPLDLRFWAKERGLRGKTYPLVCHSLDAAAAALVLWNEYLSPGLRDTIASSMETDEEHAGHCIAFWAGLHDIGKLTREFQQQIAIDLSAYPGEELSGEQRSHAAATGKWLPFALPSLGYPNGGLVTGLVAQMLGGHHGTFHPHPSFQSRNPLAEFGFSSPHWEKQRHALLHAVFDATGRPTPPDMLDGPTASVVCGLVILADWLVSQEDFLLERLTSLPADGSASALRAHFETSLRRIPSLLDAAGLRPITVPPATFTESFPHLSKPNGLQASLAKHLPCLCTGPGLVLITAPMGEGKTEAAYHVADLLGKATGRPGRFLALPTMATADQMHTRLKEYARYRVENTDLPRSSTLALLHSMAWLNPDYAPADLPGVSKVLSNLGHRDPFAATDWLMGRKRGLLAPWAVGTIDQALMAVLRAKHNALRLFGLAGKVVVVDEAHAVDPYMQVLLEQLLRWLGTLDVPVVLLSATLHHSIANSLVKAYLEGARGRRWNRSEPQPVSEVSYPGWLHVDARIGKVTRSSDVDPLPIATTPRKPLEVRLVDVPVKEGALNRSTVLAKELTPLVKQGGCAAIICTTVAEAQGVYDLLSQWFATLGEDAPDLYLLHSRFPNRQRTEITATIVDLFGKEGAQSGRRPTRGAVLVATQVVEQSLDLDVDLMISDLAPVSLLLQRAGRCWRHEHLGIINRPQWAKQPELVVLTPEQNGDADRAPWFPRSWTSVYPLALLQRTYTLLRRRNGAPVQIPEDVQQLVDDVYDDDSLAEDLEADMERMGEELAQRGLARNAVIPDPDDAEDNLNGLTEFSFDVDEHVLATRFGAGSVRVLCYYVDTAGNRWLDPECTVEFPEQGTGREGRFTMADCRDLVARTIPVRMGPWASQLTEDNHPPEAWRESFYLRDLVLIPQRVTDEGAVLPTETGGREWLLDPCKGLIF
Km: 27 (±6) mM
